This is an account of results in patent publication US20140327158A1 (E3X BIO, published 2014).

For the assay, the target named is T1, HA-UbVS (HA-tagged ubiquitin vinyl sulfone activity probe) (UniProt P0CG48 1-75, C-terminal vinyl sulfone (VS) electrophilic trap).
T1 construct: Bought from Boston Biochem. Reacts covalently with the active site cysteine after specific recognition of Ub; also called Ub-vinyl sulfone
Kind of assay: HA-UbVS activity probe labeling, gel shift. The source says: Reactions were terminated by the addition of SDS loading buffer.
Background: A gel shift assay detects complexes by their altered migration in electrophoresis.

B1: Parkin RBR (residues 238-465) (enzyme, UniProt O60260 238-465, looked up)
chain: CITCTDVRSPVLVFQCNSRHVICLDCFHLYCVTRLNDRQFVHDPQLGYSLPCVAGCPNSLIKELHHFRILGEEQYNRYQQYGAEECVLQMGGVLCPRPGCGAGLLPEPDQRKVTCEGGNGLGCGFAFCRECKEAYHEGECSAVFEASGTTTQAYRVDERAAEQARWEAASKETIKKTTKPCPRCHVPVEKNGGCMHMKCPQPQCRLEWCWNCGCEWNRVCMGDHWFDV
notes: range 238-465; also called RBR domain of Parkin
As to B1, the binding result was “binds”.
